The term kon denotes the rate constant with which the complex forms. Lower therefore signals slow association. The term Kd denotes the concentration at which binding is half-saturated. The low end stands for tighter binding, the high end for weaker binding. Broadly, the koff is the first-order rate constant of dissociation. A high value points to fast dissociation.

In assay [1] the target is T1, human FGFR4 extracellular domain (FGFR4-ECD) (human, UniProt P22455 22-369).
T1 construct: extracellular domain; also called hFGFR4-ECD
T1 sequence (looked up): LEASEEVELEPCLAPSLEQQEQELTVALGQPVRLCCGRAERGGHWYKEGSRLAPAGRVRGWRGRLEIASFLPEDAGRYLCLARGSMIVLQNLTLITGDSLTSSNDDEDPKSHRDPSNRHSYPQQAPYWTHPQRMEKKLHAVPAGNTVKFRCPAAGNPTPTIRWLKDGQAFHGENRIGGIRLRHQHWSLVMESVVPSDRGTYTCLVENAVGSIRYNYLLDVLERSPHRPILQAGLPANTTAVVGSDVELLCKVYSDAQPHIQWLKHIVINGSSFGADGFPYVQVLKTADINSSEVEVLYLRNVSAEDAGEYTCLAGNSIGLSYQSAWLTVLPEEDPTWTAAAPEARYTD
Description: SPR (BIACORE), mAb immobilized on the chip, FGFR4-ECD in solution. As to the method:
(§1) The affinity of two of the FGFR4-specific mAbs was tested using surface plasmon resonance.
(§2) The mAb was immobilized in a CMS chip and the binding of FGFR4 extracellular domain (FGFR4-ECD) was detected by measuring surface plasmon resonance in a BIACORE™ instrument
In general terms: Surface plasmon resonance follows binding to a sensor surface in real time, without labels.

Assay [2] concerns the target T1, human FGFR4 extracellular domain …. In words: SPR (BIACORE), mAb immobilized on the chip, FGFR4-ECD in solution; 'Observed KD'. How it is done:
as §1, §2

Assay [3] shares this target. In words: SPR (BIACORE), mAb immobilized on the chip, FGFR4-ECD in solution; column head prints 10^4, read as 10^-4 because that agrees with the printed kon and KD. As to the method: as §1, §2

B1: 29.2 rabbit anti-FGFR4 mAb (antibody, V domains shown)
VH: QSVKESEGRLVTPGTPLTLTCTVSGFSLSSNSVGWVRQAPGKGLEWIGIISSSGNRYYASWAKGRFTISKTSTTVDLKITSPTTEDTATYFCGGDPVSWYGDIWGPGTLVTVSS
VL: ELVLTQTPSSVSAAVGGTVTINCQSSPSLYKNNYLSWYQQKPGQPPKLLIYSASTLASGVPSRFKGSGSGTEYTLTISGVQCDDAATYYCLGGYSLSSDSPRAFGGGTEVVVK
The molecule B1 yielded a kon in assay [1] of 25000 M⁻¹ s⁻¹. Besides, binding in assay [2] was characterised by a dissociation constant (Kd) of 17 nM. The molecule also showed an off-rate constant (koff) in assay [3] of 0.00043 s⁻¹.

B2: 57.1 rabbit anti-FGFR4 mAb (antibody, V domains shown)
VH: QSVKESEGRLVTPGTPLTLTCTVSGFSLSTYAMSWVRQAPEKGLEWIGIIYATAETYYATWARGRFTISKTSTTVDLKITSPATEDTATYFCARLNGDGSGTYAYDIWGPGTLVTVSS
VL: ELVMTQTPSPVSAAVGGTVTINCQASQSISSSYLSWYQQKPGQPPKLLIYKASTRPSGVSSRFKGSGSGTQFTLTISGVQCADAATYYCLYGYYIDSGADNSFGGGTEVVVK
As for B2, the kon in assay [1] is 1700 M⁻¹ s⁻¹. This molecule also gave an equilibrium dissociation constant (Kd) in assay [2] of 110 nM. In assay [3], the koff is 0.00018 s⁻¹.

(Values after patent US20180318440A1 (US Dept. of Health and Human Services, published 2018).)
